{
  "source": "patent US7252997",
  "key": {"[1]": {"target": "Wild-type AAV2 capsid (adeno-associated virus serotype 2 (AAV2)) (UniProt P03135)", "assay": "capsid ELISA with A20 MAb on purified virus stock"}, "[2]": {"target": "AAV2 capsid mutant I-587 (P1 peptide inserted after amino acid 587, VP1 numbering) (adeno-associated virus serotype 2 (AAV2)) (UniProt P03135)", "assay": "capsid ELISA with A20 MAb on purified virus stock"}},
  "data": [
    {"substance": "A20 monoclonal antibody", "values": [
      {"measurement": "titer with A20 capsid ELISA", "setting": "[1]", "value": "6e+12", "unit": "particles/ml"},
      {"measurement": "titer with A20 capsid ELISA", "setting": "[2]", "value": "3e+12", "unit": "particles/ml"}
    ]}
  ]
}
